These results are taken from the supplement of paper PMC9170038.

The subject of the data set is MS2 coat protein. As to the kind of experiment: apparent KD of MS2 coat protein; designed switch direction (-1 OFF switch, 1 ON switch): -1; higher = weaker reporter binding. In short, it runs like this: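 Designed RNA switches with common flanks were made on Illumina chips by stalled E. coli RNA polymerase. Titration with SNAP-549-labelled MS2 coat protein doubled from 0.7 or 1.5 nM up to 3 µM. Apparent KD is each design's median over clusters after curve-fitting normalised fluorescence.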

Setting [1] is: Eterna round: R95, input ligand: FMN 200 uM.
[2] abbreviates: Eterna round: R95, input ligand: microRNA oligo, concentration not stated.
[3] abbreviates: Eterna round: R95, input ligand: none.
[4] abbreviates: input ligand: microRNA oligo, concentration not stated.

Take “AAGAAACAUGAGGAUCACCCAUGUGAGGAUAUGAACCGCCCGGCGUAAGCAAAAUAAAUCAGAAGGCACAAAGG [salish99_ex1_r4_006] (Eterna round: R97, puzzle: Exclusion 1)”: the “apparent KD of MS2 coat protein” value by setting is: (input ligand: FMN 200 uM) 0.0383 µM; (input ligand: none) 0.0322 µM.

“GGGAUGUCAGGAUAUGAUUAGCACGGCGGUAGCCGCGUUACUUAGAAGGGACAUGAGGAUCACCCAUGUACCGA [EX4 B.6] (Eterna round: R97, puzzle: Exclusion 4)”: the “apparent KD of MS2 coat protein” value runs as follows: (input ligand: FMN 200 uM) 0.0186 µM; (input ligand: none) 0.0169 µM.

In the case of “AUAACAAGCUUUUUGUUCGUAGAACAUGAUGCUCGAGUCACAUGAGGAUCACCCAUGUCAACCAGAUAGAUAGUUGA [JR_SV3TOV2_Sub061] (puzzle: Sensor v3, turn-off variant 2)”, the “apparent KD of MS2 coat protein” value is, setting by setting: under setting [1], 0.0412 µM; under setting [2], 0.162 µM; under setting [3], 0.0544 µM.

On to “CCUCGACGGUAGGAUAUCGUCAAACUAUUGUGAUGAGAAGGACUGACAUGAGGAUCACCCAUGUUAACGUGAUA [Exclusion 6 - 7:b] (puzzle: Exclusion 6)”, for which, under setting [2], the “apparent KD of MS2 coat protein” value was found to be 0.0171 µM.

In the case of “AGCCUACAUGAGGAUCACCCAUGUCAGGAUAUCUCGCAACGUGUCAAGUUCACGUCGCAGAGAAGGGACUCGGG [Tienberi] (puzzle: Exclusion 1)”, the “apparent KD of MS2 coat protein” value under setting [2] was determined as 0.0519 µM.

For “UCAAGUAUGUAGGAUAUGAUGUGAUUAUACAUAUCAGAAGGACGUACAUGAGGAUCACCCAUGUAACUUGCAUG [Exclusion 6 - B - 12:c] (puzzle: Exclusion 6)”, the “apparent KD of MS2 coat protein” value under setting [1] was 0.0298 µM, the “apparent KD of MS2 coat protein” value under setting [2] turned out to be 0.0591 µM and the “apparent KD of MS2 coat protein” value under setting [3] worked out at 0.0526 µM.

In the case of “GGUCUACAUGAGGAUCACCCAUGUCAGGAUAUCGUGUGUUUUUUUUCGGCCGCGCGUGCGAGAAGGGACGUCUU (puzzle: Exclusion 1)”, the “apparent KD of MS2 coat protein” value under setting [2] was 0.0166 µM.

Regarding “GAUUAUGCGAGCUUUAGGGACAUGAGGAUCACCCAUGUUCGUCUUAUUGAUCUAGGUGCACUGACAUACCUAAAUCU [JMF 89] (puzzle: Sensor v3, turn-off variant 1)”, the “apparent KD of MS2 coat protein” value by setting is: under setting [1], 0.0285 µM; under setting [2], 0.0379 µM; under setting [3], 0.0298 µM.

For the sequence “ACAUGUAAUGUAGGAUAUUUUACACAUGAGGAUCACCCAUGUGACCAGAGGCUUUGCUAUGAGUAAAAGAAGGGUAUGUACAUG [Ex NG2 #59] (Eterna round: R96, puzzle: Exclusion NG 2)”, the “apparent KD of MS2 coat protein” value under setting [4] stood at 0.0515 µM.

For “UUGAGCAGACGGAGAUCCAACAUGAGGAUCACCCAUGUCUCAUAAGCUUUUUGUUCAUCUUAUUGUACCUUGGUGCU [Mat - Sensor v3 - turn-off var 1 - JL Mod - D23] (puzzle: Sensor v3, turn-off variant 1)”, the “apparent KD of MS2 coat protein” value runs as follows: under setting [1], 0.047 µM; under setting [2], 0.00853 µM; under setting [3], 0.0405 µM.

With “AAUUUACAUGAGGAUCACCCAUGUGAGGAUAUGAUACUAUGUACUUCGGUACAUAGUAUCAGAAGGCAUGUGAA [Ex1-3: 92] (puzzle: Exclusion 1)”, the “apparent KD of MS2 coat protein” value under setting [2] is 0.133 µM.

“AAUAAUUUUUUUUUUUUACAAGCUUUUUGCUCGUCUUAUACAUGAGGAUCACCCAUGUGGGUGAAAGAUAGAUUGUC [JMF's solution 1] (puzzle: Sensor v3, turn-off variant 2)”: the “apparent KD of MS2 coat protein” value by setting is: under setting [1], 0.0306 µM; under setting [2], 0.0182 µM; under setting [3], 0.0448 µM.

As for “CCGCAAAUUGAGGAUAUCGUAUCGGAUACGAUACGAGAAGGCGAAACAUGAGGAUCACCCAUGUGUCCUAGCGG [Fiskers Ex 6 - 33] (puzzle: Exclusion 6)”, the “apparent KD of MS2 coat protein” value by setting is: under setting [1], 0.0182 µM; under setting [2], 0.012 µM; under setting [3], 0.0144 µM.

“GAUAGAGAGCAGGAUAUCUUAGAAAUGUAUUAUAGAGAAGGGCUCACAUGAGGAUCACCCAUGUGGUCCUAGAU [JL Dibiri mod 15] (Eterna round: R96, puzzle: Exclusion 6)”: the “apparent KD of MS2 coat protein” value (input ligand: FMN 200 uM) came to 0.0943 µM, the “apparent KD of MS2 coat protein” value under setting [4] is 0.0144 µM and the “apparent KD of MS2 coat protein” value (input ligand: none) turned out to be 0.0196 µM.

With “UAUUCGAUAGGAUAUGCACAUCAUUUGGGAGGUAACAGUGCACAUGAGGAUCACCCAUGUAGAAGGAUCUGGAU [Eternabot (L2) Solution 46] (Eterna round: R97, puzzle: Exclusion 2)”, the “apparent KD of MS2 coat protein” value came out at 0.102 µM (input ligand: FMN 200 uM) and 0.118 µM (input ligand: none).

For the sequence “AAAACAAACGAAGGAUAUGCGCGAAAAUGACUAGCAGAAGGUCGACACGGGCGGAUCCGACAUGAGGAUCACCCAUGUAAAACU [Tied] (Eterna round: R96, puzzle: Exclusion NG 1)”, the “apparent KD of MS2 coat protein” value is, setting by setting: (input ligand: FMN 200 uM) 1.2 µM; under setting [4], 0.389 µM; (input ligand: none) 0.49 µM.

In the case of “GGUUGCGCAGGAUAUACAUGAGGAUCACCCAUGUGAGAGAAAUAAGUGAGGAAGAAAAGUAGAAGGGCGUGACA [Mat - Exclusion 3 - Mod of Salish D75] (puzzle: Exclusion 3)”, the “apparent KD of MS2 coat protein” value runs as follows: under setting [1], 0.175 µM; under setting [2], 0.0453 µM; under setting [3], 0.0589 µM.

As to “GGCACACAUGAGGAUCACCCAUGUGAGGAUAUGCUGCGAUCGUCGUAAGACGAUAGCAGUAGAAGGCACAUGCC [Mat - Exclusion 1 - Eli Mod - D8] (Eterna round: R97, puzzle: Exclusion 1)”, the “apparent KD of MS2 coat protein” value by setting is: (input ligand: FMN 200 uM) 0.0229 µM; (input ligand: none) 0.0205 µM.

As for “CCAAGCUUUUUCAUUAACAACAUGAGGAUCACCCAUGUUUAAGCUAUUACUUUUGGGCUCUUUAGUGCUCGUCUUAU [JR_STOV1_Sub040] (Eterna round: R97, puzzle: Sensor, turn-off variant 1)”, the “apparent KD of MS2 coat protein” value runs as follows: (input ligand: FMN 200 uM) 0.0144 µM; (input ligand: none) 0.0139 µM.

As to “AGGCGUGCUGAGGAUAUACUACCGGUUGCGAUAGUAGAAGGUAGCACAUGAGGAUCACCCAUGUGGUCAGAUGC [Bequte] (puzzle: Exclusion 6)”, under setting [2], the “apparent KD of MS2 coat protein” value amounted to 0.0191 µM.

“AGGUGUAGAGGAUAUCGACUUUCUCACAUGAGGAUCACCCAUGUCCUGGUCACCCAGGACCGAGAAGGCUACACCA [Omei Ex5 D27] (Eterna round: R97, puzzle: Exclusion 5)”: the “apparent KD of MS2 coat protein” value is 0.204 µM (input ligand: FMN 200 uM) and 0.0276 µM (input ligand: none).

Turning to “AACAUGAGGAUCACCCAUGUAAUGGACAGAUCACCGACCACGCAGGAUAUUAGGCCUCAAAUUCUUAAGAAGGGCGAGGAUGUG [Eternabot solution 49] (Eterna round: R96, puzzle: Exclusion NG 3)”, the “apparent KD of MS2 coat protein” value is 0.0503 µM (input ligand: FMN 200 uM), 0.052 µM under setting [4] and 0.0669 µM (input ligand: none).

Turning to “CUUUUGUGAGGAUAUCAGUAGUAAAAUAAUAAAAUAACUACUGAGAAGGCACAUGAGGAUCACCCAUGUUCCUC [Mat - Exclusion 4 - Mod of Salish - D73] (puzzle: Exclusion 4)”, the “apparent KD of MS2 coat protein” value under setting [2] came to 0.0339 µM.

Consider “AAAAUAAAAGCAGGAUAUCGACCUCCCAAGUGGCGAGAAGGGCUAGACGGGCGGUCUAACAUGAGGAUCACCCAUGUCAACAAA [Soorante] (Eterna round: R96, puzzle: Exclusion NG 1)”, for which the “apparent KD of MS2 coat protein” value worked out at 0.0934 µM (input ligand: FMN 200 uM), 0.0235 µM under setting [4] and 0.0347 µM (input ligand: none).

For the sequence “AGUUGGCGAGGAUAUACAUGAGGAUCACCCAUGUGAGGGAUACUAGUGAGGUCGAUUAGUAGAAGGCGCUGACA [Mat X3R4 m9] (Eterna round: R97, puzzle: Exclusion 3)”, the “apparent KD of MS2 coat protein” value is 0.839 µM (input ligand: FMN 200 uM) and 0.0561 µM (input ligand: none).

Regarding “GCUGGUCAAGGAUAUACAUGAGGAUCACCCAUGUGAUCAGCAGUCCUCGGACUGCAAUGUAGAAGGUGACCAGC [E3/1-C1] (Eterna round: R97, puzzle: Exclusion 3)”, the “apparent KD of MS2 coat protein” value reads like this: (input ligand: FMN 200 uM) 0.0293 µM; (input ligand: none) 0.458 µM.

For “UUAUUAAGUGUGAGGAUAUGCUGGUCCUUGGAUCAGCAGAAGGCACAUGAGGAUCACCCAUGUACAUUAUUUUA [Mat - Exclusion 4 - JL Mod - D28] (puzzle: Brourd's mod of Exclusion 4)”, under setting [2], the “apparent KD of MS2 coat protein” value came to 0.0316 µM.

With “GCUUGUGGGCAAGGAUAUCCUACGUUGUUCUGGUUCGUGUCUGUCACAUGAGGAUCACCCAUGUGGGAGAAGGUGCAUUUGGUG [Design 61] (Eterna round: R96, puzzle: Exclusion NG 2)”, the “apparent KD of MS2 coat protein” value under setting [4] amounted to 0.0129 µM.

As to “CCUCUUGGGCAAGGAUAUCCUGCGCGGUUCCGGUUCGUGUCUGUCACAUGAGGAUCACCCAUGUGGGAGAAGGUGCCUGCGGUC [Design 78] (Eterna round: R96, puzzle: Exclusion NG 2)”, the “apparent KD of MS2 coat protein” value under setting [4] was 0.012 µM.

For “GCAGCAACUCUAAUCAAAACCACAUGAGGAUCACCCAUGUCUCAGGAUAUGGUCUGGAUUACAGGCCAGAAGGGAGAAAGCUGC [Eli exng3 - 050] (Eterna round: R96, puzzle: Exclusion NG 3)”, the “apparent KD of MS2 coat protein” value by setting is: (input ligand: FMN 200 uM) 0.0133 µM; under setting [4], 0.0106 µM; (input ligand: none) 0.0194 µM.

On to “ACAAAGGUAGGAUAUCGGACUAUGGACAUGAGGAUCACCCAUGUGCGUCCAGUGUCCAACCGAGAAGGACCCAAAA [Beinge] (puzzle: Exclusion 5)”, for which the “apparent KD of MS2 coat protein” value by setting is: under setting [1], 0.0832 µM; under setting [2], 0.0861 µM; under setting [3], 0.0916 µM.

“CGUGUGCAGUAGGAUAUCCAAAUCCUGUGGAUAGGAGAAGGACUGACAUGAGGAUCACCCAUGUGGGUAAAGAC [Velaxediza] (puzzle: Exclusion 6)”: the “apparent KD of MS2 coat protein” value under setting [1] stood at 0.0488 µM, the “apparent KD of MS2 coat protein” value under setting [2] is 0.0637 µM and the “apparent KD of MS2 coat protein” value under setting [3] worked out at 0.0577 µM.
